Several values for one entry are separate records, joined by “and”; a condition that tells them apart may be missing. Equal entries are not always repeated.

For orientation: Km means the concentration of substrate that gives half-maximal velocity. Usually Vmax stands for the top rate of the reaction or transport when substrate is in excess.

In one data set the test system is p-gp. Also noted: method as in PMID 27499331. Conditions: cited from earlier work.
In data set [1] the test system is organic anion transporters. The arrangement: method as in PMID 27499331. The note with it: cited from earlier work.
Substrate in data set [2]: CC(=O)C1=C(O)[C@@H](N)[C@H]2Cc3c(c(O)c4c(O)c(C)ccc4c3C)C(=O)[C@@]2(O)C1=O
The data set can be described thus: Three-point uptake (substrate assessment) in mOat1-overexpressing HEK293 cells. In kind it is in vitro ADME, mouse. The note with it: other: Michaelis–Menten fit, 1, 10 and 100 μM; 30.0 °C. The protocol: (§1) This is important to gain a better understanding of the underlying mechanisms of secretion into urine. Therefore, we assessed the amount of compound taken up by the vector and transporter cells at three different concentrations (1, 10, and 100 μM for mOat1 and mOct1; 0.1, 1, and 10 μM for mOat3) and at two different incubation periods (1 and 5 min for mOat1 and mOct1; 5 and 10 min for mOat3).
(§2) The incubation buffer contained CHD and CDCHD in a final concentration of 1, 10, and 100 μM. After 1 and 5 min, the incubation was terminated. In addition, the probe inhibitor probenecid (100 μM) was added in one concentration to 10 μM CHD and CDCHD, respectively, and after 1 and 5 min, the incubation was stopped. Inhibition of mOat1-mediated ^3H-PAH (10 μM) uptake by 100 μM probenecid was performed as a control experiment. After 1 min, the incubation was terminated. All experiments were conducted in triplicate.
(§3) First, a calibration curve was prepared by spiking different concentrations of CHD and CDCHD into the cell matrix. Caffeine was used as an internal standard. In addition, quality control samples (QCs) were prepared for CHD and CDCHD in a cell matrix. The following extraction procedures were used: 300 μL of acetonitrile/water (1:1) is added to the cell pellet (sample or calibration/QC sample) for 15 min at 2000 rpm on an Eppendorf MixMate vortex mixer. 10 μL of this extracted sample is used for further analysis. 10 μL of the extracted cell sample is further extracted with 25 μL of a mixture of methanol/acetonitrile (2:1) containing 12.5 ng/mL caffeine as an internal standard (on ice) for 5 min at 2000 rpm on an Eppendorf MixMate vortex mixer. Then, samples were spun down at 15,870 × g for 10 min. Supernatants were transferred to standard HPLC glass vials. Samples were analyzed using an Agilent 1290 Infinity II HPLC system coupled to an AB Sciex QTrap6500plus mass spectrometer. LC conditions were as follows: column: Agilent Zorbax Eclipse Plus C18, 50 × 2.1 mm, 1.8 μm; temperature: 30°C; injection volume: 5 μL per sample; flow rate: 700 μL/min. Samples were run under the following conditions. Solvents: A: 100% water +0.1% formic acid; solvent B: 100% acetonitrile +0.1% formic acid. The gradient for CDCHD was as follows: 99% A at 0 min, 99% A until 0.1 min, 99–90% A from 0.1 to 1.0 min, 90–50% A from 1.0 to 2.4 min, 50–35% A from 2.4 to 2.7 min, 35–0% A from 2.7 until 4.5 min, 0% A until 5.5 min, 0–99% from 5.5 to 5.7 min, 99% A until 6.0 min. […]
(§4) For statistical testing of differences in uptake ratio or for the inhibitory effect, an ordinary one-way ANOVA test was performed using GraphPad Prism 9.5.1 software. […] Michaelis–Menten kinetics were determined using the Michaelis–Menten algorithm of GraphPad Prism 9.5.1 software. […]

Substrate in data set [3]: Cc1ccc2c(C)c3c(c(O)c2c1O)C(=O)[C@@]1(O)C(=O)C(C(N)=O)=C(O)[C@@H](N)[C@H]1C3
The description is as above. Type of data set: in vitro ADME, mouse. The note with it: other: Michaelis–Menten fit, 1, 10 and 100 μM; 30.0 °C. The protocol: as §1, §2, §3, §4

Substrate in data set [4]: CC(=O)C1=C(O)[C@@H](N)[C@H]2Cc3c(c(O)c4c(O)c(C)ccc4c3C)C(=O)[C@@]2(O)C1=O
The data set is described as follows: Three-point uptake (substrate assessment) in mOat3-overexpressing HEK293 cells. Type of data set: in vitro ADME, mouse. The note with it: other: Michaelis–Menten fit, 0.1, 1 and 10 μM; 30.0 °C. How it is done: as §1
The incubation buffer contained CHD and CDCHD in a final concentration of 0.1, 1, and 10 μM. After 5 and 10 min, the incubation was terminated. In addition, the probe inhibitor probenecid (100 μM) was added in one concentration to 10 μM CHD and CDCHD, respectively, and after 5 and 10 min, the incubation was stopped. Inhibition of mOat3-mediated ^3H-ES (1 μM) uptake by 100 μM probenecid was performed as a control experiment. After 1 min, the incubation was terminated. […]
First, a calibration curve was prepared by spiking different concentrations of CHD and CDCHD into the cell matrix. […] Samples were analyzed using an Agilent 1290 Infinity II HPLC system coupled to an AB Sciex QTrap6500plus mass spectrometer. […]
as §4

Substrate in data set [5]: CC(=O)C1=C(O)[C@@H](N)[C@H]2Cc3c(c(O)c4c(O)c(C)ccc4c3C)C(=O)[C@@]2(O)C1=O
The data set can be described thus: Three-point uptake (substrate assessment) in mOct1-overexpressing HEK293 cells. Type of data set: in vitro ADME, mouse. Conditions: other: Michaelis–Menten fit, 1, 10 and 100 μM; 30.0 °C. How it is done: as §1
(§5) The incubation buffer contained CHD and CDCHD in a final concentration of 1, 10, and 100 μM. After 1 and 5 min, the incubation was terminated. In addition, the probe inhibitor decynium22 (50 μM) was added in one concentration to 10 μM CHD and CDCHD, respectively, and after 1 and 5 min, the incubation was stopped. Inhibition of mOct1-mediated ^3H-MPP (10 μM) uptake by 50 μM decynium22 was performed as a control experiment. After 1 min, the incubation was terminated. All experiments were conducted in triplicate.
(§6) First, a calibration curve was prepared by spiking different concentrations of CHD and CDCHD into the cell matrix. Caffeine was used as an internal standard. In addition, quality control samples (QCs) were prepared for CHD and CDCHD in a cell matrix. The following extraction procedures were used: 300 μL of acetonitrile/water (1:1) is added to the cell pellet (sample or calibration/QC sample) for 15 min at 2000 rpm on an Eppendorf MixMate vortex mixer. 10 μL of this extracted sample is used for further analysis. 10 μL of the extracted cell sample is further extracted with 25 μL of a mixture of methanol/acetonitrile (2:1) containing 12.5 ng/mL caffeine as an internal standard (on ice) for 5 min at 2000 rpm on an Eppendorf MixMate vortex mixer. […] Samples were analyzed using an Agilent 1290 Infinity II HPLC system coupled to an AB Sciex QTrap6500plus mass spectrometer. […]
as §4

Substrate in data set [6]: Cc1ccc2c(C)c3c(c(O)c2c1O)C(=O)[C@@]1(O)C(=O)C(C(N)=O)=C(O)[C@@H](N)[C@H]1C3
The data set is described as above. Type of data set: in vitro ADME, mouse. The note with it: other: Michaelis–Menten fit, 1, 10 and 100 μM; 30.0 °C. How it is done: as §1, §5, §6, §4

In the case of `CN(C)c1cc(CNCC(C)(C)C)c(O)c2c1C[C@H]1C[C@H]3[C@H](N(C)C)C(O)=C(C(N)=O)C(=O)[C@@]3(O)C(O)=C1C2=O` [omadacycline], the Km with p-gp was around 82 µM. Moreover, the “substrate or inhibitor of organic anion transporters (in words)” value in data set [1] is recorded as “neither a substrate nor an inhibitor”.

B1: mOat1 (Mus musculus) (protein)
chain: MAFNDLLKQVGGVGRFQLIQVTMVVAPLLLMASHNTLQNFTAAIPAHHCRPPANANLSKDGGLEAWLPLDKQGRPESCLRFPFPHNGTEANGTGVTEPCLDGWVYDNSTFPSTIVTEWNLVCSHRAFRQLAQSLFMVGVLLGAMMFGYLADRLGRRKVLILNYLQTAVSGTCAAYAPNYTVYCIFRLLSGMSLASIAINCMTLNMEWMPIHTRAYVGTLIGYVYSLGQFLLAGIAYAVPHWRHLQLAVSVPFFVAFIYSWFFIESARWYSSSGRLDLTLRALQRVARINGKQEEGAKLSIEVLQTSLQKELTLNKGQASAMELLRCPTLRRLFLCLSMLWFATSFAYYGLVMDLQGFGVSMYLIQVIFGAVDLPAKFVCFLVINSMGRRPAQLASLLLAGICILVNGIIPRGHTIIRTSLAVLGKGCLASSFNCIFLYTGELYPTMIRQTGLGMGSTMARVGSIVSPLISMTAEFYPSIPLFIFGAVPVAASAVTALLPETLGQPLPDTVQDLKSRSRGKQKQQQLEQQKQMIPLQVSTQEKNGL
notes: expressed in transfected cells; host or cells: HEK293
As for B1, in data set [2], the Km amounted to 65.08 µM and the Vmax came out at 82.38 nM/min. Besides, in data set [3], the Km amounted to 39.64 µM and the Vmax was found to be 11.48 nM/min.

B2: mOat3 (Mus musculus) (protein)
chain: MTFSEILDRVGSMGPFQYLHVTLLALPILGIANHNLLQIFTATTPDHHCRPPPNASLEPWVLPLGPNGKPEKCLRFVHLPNASLPNDTQGATEPCLDGWIYNSTRDTIVTEWDLVCGSNKLKEMAQSVFMAGILVGGPVFGELSDRFGRKPILTWSYLLLAASGSSAAFSPSLTVYMIFRFLCGCSISGISLSTIILNVEWVPTSTRAISSTTIGYCYTIGQFILPGLAYAVPQWRWLQLSVSAAFFIFSLLSWWVPESIRWLVLSGKFSKALKTLQRVATFNGKKEEGEKLTVEELKFNLQKDITSAKVKYGLSDLFRVSILRRVTFCLSLAWFATGFAYYSLAMGVEEFGVNIYILQIIFGGVDIPAKFITILSISYLGRRITQGFLLILAGVAILALIFVSSEMQLLRTALAVFGKGCLSGSFSCLFLYTSELYPTVLRQTGMGISNIWARVGSMIAPLVKITGELQPFIPNVIFGTMTLLGGSAAFFLLETLNRPLPETIEDIQDWYQQTKKTKQEPEAEKASQTIPLKTGGP
notes: as for B1
B2: in data set [4], the Michaelis constant (Km) was 6.1 µM and 6 µM; the Vmax came out at 26.42 nM/min.

B3: mOct1 (Mus musculus) (protein)
chain: MPTVDDVLEHVGEFGWFQKQAFLLLCLISASLAPIYVGIVFLGFTPDHHCRSPGVAELSQRCGWSPAEELNYTVPGLGSAGEASFLSQCMKYEVDWNQSTLDCVDPLSSLAANRSHLPLSPCEHGWVYDTPGSSIVTEFNLVCGDAWKVDLFQSCVNLGFFLGSLVVGYIADRFGRKLCLLVTTLVTSLSGVLTAVAPDYTSMLLFRLLQGMVSKGSWVSGYTLITEFVGSGYRRTTAILYQVAFTVGLVGLAGVAYAIPDWRWLQLAVSLPTFLFLLYYWFVPESPRWLLSQKRTTQAVRIMEQIAQKNRKVPPADLKMMCLEEDASERRSPSFADLFRTPSLRKHTLILMYLWFSCAVLYQGLIMHVGATGANLYLDFFYSSLVEFPAAFIILVTIDRIGRIYPIAASNLVAGAACLLMIFIPHELHWLNVTLACLGRMGATIVLQMVCLVNAELYPTFIRNLGMMVCSALCDLGGIFTPFMVFRLMEVWQALPLILFGVLGLSAGAVTLLLPETKGVALPETIEEAENLGRRKSKAKENTIYLQVQTGKSPHT
notes: as for B1
With B3, in data set [5], the Km is 8.91 µM and 8.9 µM; the Vmax stood at 49 nM/min. The Km in data set [6] came out at 55.2 µM.

The values above are taken from article PMC11249637, “Interaction of the Atypical Tetracyclines Chelocardin and Amidochelocardin with Renal Drug Transporters” (ACS Pharmacology & Translational Science, 2024).
